Assay results taken from the nanobody polyreactivity screen of Harvey et al. (2022).

Assay: yeast display, Sf9 membrane polyspecificity reagent, FACS + sequencing; frameworks hold sequencing errors
Outline: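 Using colony PCR, genes from sorted yeast display clones were amplified, then sequenced on MiSeq at 2 × 250 and filtered by CDR length. The clones had been stained with 10% biotinylated, detergent-solubilized Sf9 membrane reagent for 1 hour at 4 °C and sorted by FACS into low and high (top ~1%) gates on anti-HA and streptavidin fluorescence. Polyreactivity labels come from the gate of origin.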

Sequence | polyreactivity (PSR sort gate)
QVQLVESGGGLVQAGGSLRLSCAASGFTFGWYTMGWYRPAPGKERELVAAISLNGGSTYYADSVKGRFTISRDNAKNTVYLQMNSLKPEDTAVYYCAIGYRWPYYPYDYWGQGTQVTVSS | low polyreactivity
QVQLVESGGGLVQAGGSLRLSCAASGFTFGWYTMGWYRQAPGKEREFVAAISWSGTSTYYADSVKGRFTISRDNAKNTVYLQMNSLKAEDTAVYYCNKLRRGDMEYWGQGTQVTVSS | high polyreactivity
QVQLVESGGGLVQAGGSLRLSCAASGFTFGYNAMGWYRQAPGKERELVAAISWSGGTYYADSVKGRFTISRDNAKNTVYLQMNSLKPEDTAVYYCAAVVVYWTSQIYYDGYYYWGQGTQVTVSS | high polyreactivity
QVQLVESGGGLVQAGGSLRLSCAASGFTFGYYTMGWYRQAPGKERELVAAISSGGSTNYADSVKGRFTISRDNAKNTVYLQMNSLKPEDTAVYYCTATQIGPYYLPFDSWGQGTQVTVSS | high polyreactivity
QVQLVESGGGLVQAGGSLRLSCAASGFTFGYYTMGWYRQAPGKERELVAAISWRGGRTYYADSVKGRFTISRDNAKNTVYLQMNSLKPEDTAVYYCAAEYTYGWTYRPFDYWGQGTQVTVSS | high polyreactivity
QVQLVESGGGLVQAGGSLRLSCAASGFTFHKNAMGWYRQAPGKERELVAAITNRGGSTYYADSVKGRFTISRDNAKNTVYLQMNSLKPEDTAVYYCAAELRPYITYVGPRKKFYYWGQGTQVTVSS | high polyreactivity
QVQLVESGGGLVQAGGSLRLSCAASGFTFHNYAMGWYRQAPGKERELVAAITWDGGSTYYADSVKGRFTISRDNEKNTVDLQLNRLKPEDTAVYYCALDQYYYYYADYNFDYWGQGTQVTVSS | high polyreactivity
QVQLVESGGGLVQAGGSLRLSCAASGFTFHNYAMGWYRQAPGKERELVAVIRWRGGSTYYADSVKGRFTISRDNAKNSVYLQMNSLKPEDTAFYYCAKRARGSYYWGYNYWGQGTQVTVSS | high polyreactivity
QVQLVESGGGLVQAGGSLRLSCAASGFTFHNYAMGWYRQAPGKERELVAVIRWRGGSTYYADSVKGRFTISRDNAKNTVYLQMNSLKPEDTAVYYCNALFRYSRDYWGQGTQVTVSS | high polyreactivity
QVQLVESGGGLVQAGGSLRLSCAASGFTFHPNSMGWYRQAPGKERELVASISSRGGSTYYADSVKGRFTISRDNAKNTVYLQMNSQKPEYTAVYYCNVRGTQYYGHIGFYYWGQGTQVTVSS | low polyreactivity
QVQLVESGGGLVQAGGSLRLSCAASGFTFHRYAMGWYRQAPGKERELVARINWSGGGTYYADSVKGRFTISRDNAKNTVYLQMNSLKPEDTAVYYCNARGVFYVYKHDYWGQGTQVTVSS | high polyreactivity
QVQLVESGGGLVQAGGSLRLSCAASGFTFHSYAMGWYRQAPGKERELVAAISGRGGSTYYADSVKGRFTISRDNAKNTVYLQMNSLKPEDTAVYYCARYGYHDYGYWGQCTQVTVSS | high polyreactivity
QVQLVESGGGLVQAGGSLRLSCAASGFTFHTYAMGWYRQAPGKERELVAAIDSSGGITYYADSVKGRFTISRDNAKNTVYLQMKSLKPEDTAVYYCAAVFLLFGFEWSYDYWGQGTQVTVSS | low polyreactivity
QVQLVESGGGLVQAGGSLRLSCAASGFTFHWYVMGWYRQAPGKERELVAAISRNGGRTYYADSVKGRFTISRDNAKNTVYLQMNSLKPEDTAVYYCATDYGWLYINSIWEYDYWGQGTQVTVSS | high polyreactivity
QVQLVESGGGLVQAGGSLRLSCAASGFTFHYYDMGWYRQAPGKERELVATISQSGTSTYYADSVKGRFTISRDNAKNSVYLQMHSLKPEDTAVYYCAADYIGYWYGYYWYEYWGQGTQVTVSS | low polyreactivity
QVQLVESGGGLVQAGGSLRLSCAASGFTFHYYGMGWYRQAPGKERELVAAINWSGSSTYYADSVKGRFTISRDNATNTVYLQMNSLKPEDSAVYYCAAEKRKLFQGVARYRYEYWGQGTQVTVSS | low polyreactivity
QVQLVESGGGLVQAGGSLRLSCAASGFTFIDYAMGWYRQAPGKERALVAAITSRGGSTYYADSVKGRFTISRDNAKNTVYLQMNSLKPEDTAVYYCNAGSSFWYAYEYWGQGTQVTVSS | high polyreactivity
